Test results taken from publication PMC3197142, “Direct Identification of Insulator Components by Insertional Chromatin Immunoprecipitation” (PLoS ONE, 2011).
Values belong to the binder of their own block, whether it stands above or below them.

Target: T1, GST-Matrin-3 (human, UniProt P43243-1 1-847)
T1 construct: human Matrin-3, cDNA GenBank NM_199189, inserted downstream of the GST gene in pGEX-6P-1; also called GST-fused Matrin-3; pGEX-Matrin-3; source: E. coli BL21-CodonPlus(DE3)-RIPL, purified (Glutathione Sepharose 4B); not shown: GST, N-terminal, kept
T1 sequence (looked up): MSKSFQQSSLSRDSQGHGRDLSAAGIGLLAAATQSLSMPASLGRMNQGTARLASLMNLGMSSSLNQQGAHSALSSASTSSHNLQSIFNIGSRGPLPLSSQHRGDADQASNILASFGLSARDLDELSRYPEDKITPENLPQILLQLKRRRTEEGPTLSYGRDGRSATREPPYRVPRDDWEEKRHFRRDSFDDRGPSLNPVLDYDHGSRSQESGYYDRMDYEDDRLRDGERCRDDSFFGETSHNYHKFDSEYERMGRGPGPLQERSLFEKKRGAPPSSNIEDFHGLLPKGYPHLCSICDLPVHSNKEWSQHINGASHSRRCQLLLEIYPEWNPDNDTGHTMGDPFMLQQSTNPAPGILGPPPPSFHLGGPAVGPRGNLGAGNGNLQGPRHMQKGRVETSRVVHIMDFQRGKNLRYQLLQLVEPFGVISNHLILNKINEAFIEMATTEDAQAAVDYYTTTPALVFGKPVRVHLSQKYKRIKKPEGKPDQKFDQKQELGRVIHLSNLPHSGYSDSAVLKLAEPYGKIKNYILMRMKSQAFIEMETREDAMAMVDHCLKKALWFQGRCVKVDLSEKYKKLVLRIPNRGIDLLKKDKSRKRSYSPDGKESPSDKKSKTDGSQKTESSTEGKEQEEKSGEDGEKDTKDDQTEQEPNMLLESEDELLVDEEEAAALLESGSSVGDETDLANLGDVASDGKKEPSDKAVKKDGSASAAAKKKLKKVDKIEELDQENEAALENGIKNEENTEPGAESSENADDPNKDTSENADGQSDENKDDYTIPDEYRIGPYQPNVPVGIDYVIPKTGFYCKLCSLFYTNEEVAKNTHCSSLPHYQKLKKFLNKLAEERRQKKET
Experiment: pull-down; purified GST-Matrin-3 (50 ng) incubated with purified MBP-fused proteins (50 ng) in Interaction Buffer (20 mM Tris pH 8.0, 137 mM NaCl, 1.5 mM MgCl2, 1 mM EGTA, 0.1% Triton X-100, 10% glycerol), 1.5 h at 4°C; captured on Glutathione Sepharose 4B; immunoblot with anti-MBP Ab
Settings: both partners purified

binding result: binds
B1: MBP-p68 (natural protein, human, UniProt P17844-1 1-614, looked up)
chain: MSGYSSDRDRGRDRGFGAPRFGGSRAGPLSGKKFGNPGEKLVKKKWNLDELPKFEKNFYQEHPDLARRTAQEVETYRRSKEITVRGHNCPKPVLNFYEANFPANVMDVIARQNFTEPTAIQAQGWPVALSGLDMVGVAQTGSGKTLSYLLPAIVHINHQPFLERGDGPICLVLAPTRELAQQVQQVAAEYCRACRLKSTCIYGGAPKGPQIRDLERGVEICIATPGRLIDFLECGKTNLRRTTYLVLDEADRMLDMGFEPQIRKIVDQIRPDRQTLMWSATWPKEVRQLAEDFLKDYIHINIGALELSANHNILQIVDVCHDVEKDEKLIRLMEEIMSEKENKTIVFVETKRRCDELTRKMRRDGWPAMGIHGDKSQQERDWVLNEFKHGKAPILIATDVASRGLDVEDVKFVINYDYPNSSEDYIHRIGRTARSTKTGTAYTFFTPNNIKQVSDLISVLREANQAINPKLLQLVEDRGSGRSRGRGGMKDDRRDRYSAGKRGGFNTFRDRENYDRGYSSLLKRDFGAKTQNGVYSAANYTNGSFGSNFVSAGIQTSFRTGNPTGTYQNGYDSTQQYGSNVPNMHNGMNQQAYAYPATAAAPMIGYPMPTGYSQ
notes: human p68 (DDX5), cDNA GenBank NM_004396, inserted downstream of the MBP gene in pMAL-x5c; also called p68/DDX5; source: E. coli BL21-CodonPlus(DE3)-RIPL, purified (Amylose resin); not shown: MBP, N-terminal, kept

binding result: binds
B2: MBP-CTCF (natural protein, human, UniProt P49711-1 1-727, looked up)
chain: MEGDAVEAIVEESETFIKGKERKTYQRRREGGQEEDACHLPQNQTDGGEVVQDVNSSVQMVMMEQLDPTLLQMKTEVMEGTVAPEAEAAVDDTQIITLQVVNMEEQPINIGELQLVQVPVPVTVPVATTSVEELQGAYENEVSKEGLAESEPMICHTLPLPEGFQVVKVGANGEVETLEQGELPPQEDPSWQKDPDYQPPAKKTKKTKKSKLRYTEEGKDVDVSVYDFEEEQQEGLLSEVNAEKVVGNMKPPKPTKIKKKGVKKTFQCELCSYTCPRRSNLDRHMKSHTDERPHKCHLCGRAFRTVTLLRNHLNTHTGTRPHKCPDCDMAFVTSGELVRHRRYKHTHEKPFKCSMCDYASVEVSKLKRHIRSHTGERPFQCSLCSYASRDTYKLKRHMRTHSGEKPYECYICHARFTQSGTMKMHILQKHTENVAKFHCPHCDTVIARKSDLGVHLRKQHSYIEQGKKCRYCDAVFHERYALIQHQKSHKNEKRFKCDQCDYACRQERHMIMHKRTHTGEKPYACSHCDKTFRQKQLLDMHFKRYHDPNFVPAAFVCSKCGKTFTRRNTMARHADNCAGPDGVEGENGGETKKSKRGRKRKMRSKKEDSSDSENAEPDLDDNEDEEEPAVEIEPEPEPQPVTPAPPPAKKRRGRPPGRTNQPKQNQPTAIIQVEDQNTGAIENIIVEVKKEPDAEPAEGEEEEAQPAATDAPNGDLTPEMILSMMDR
notes: source: E. coli BL21-CodonPlus(DE3)-RIPL, purified (Amylose resin); not shown: MBP, N-terminal, kept
